# How the values were obtained:
# [1] = Oral availability of radiolabeled Adalimumab; format: in vivo, male Wistar rats; conditions: liposomes containing 1 mol-% cyclic CPP-conjugate vs radiolabeled free antibody, 6 h, rats
# Procedure: The animal study was performed according to local authorities using male Wistar rats with a body weight of about 200-250 g. For the determination of the bioavailability (absolute), the antibody Adalimumab (Humira®) was radiolabeled with ^131I and incorporated into the liposomal formulation containing 1 mol-% of the cyclic CPP-phospholipid-conjugate and compared with the free antibody as described previously. After 6 h, the blood levels were measured by direct counting of the radiolabeled sample. Prior to 12 h of the experiment, the rats were kept without food, but with free access to water. Oral application of the liposomes and the radiolabeled free antibody took place by gavage. The blood was removed, weighed and the radioactivity was measured using a Berthold LB 951 G counter in comparison with standards. The blood-associated activity was related to the total injected dose (ID) and expressed as a percentage of the total injected dose per gram of tissue (% ID/g) (FIG. 16).
# [2] = Radioactivity at determined time points after oral application of radiolabeled substances; format: in vivo; conditions: radiolabeled substance
# [3] = Bioavailability (absolute) of oral liposomal Vancomycin versus i.v.; format: in vivo; conditions: male, Wistar, rat, whole blood; oral liposomal formulation containing 1 mol-% of the cyclic CPP-liposomes, rats; read-out: bioavailability (absolute) in comparison with the i.v. application
# Procedure: The animal study was performed according to local authorities using male Wistar rats with a body weight of about 200-250 g. For the determination of the bioavailability (absolute) the glycopeptide antibiotic Vancomycin was radiolabeled with ^131I and incorporated into the liposomal formulation containing 1 mol-% of the cyclic CPP-phospholipid-conjugate and compared with Vancomycin i.v. as described previously. At several time points, the blood levels of Vancomycin were measured by direct counting of the radiolabeled sample. Briefly, groups (n≥3) of male Wistar rats were formed. Prior to 12 h of the experiment, the rats were kept without food, but with free access to water. Oral application of the liposomes took place by gavage. The blood was removed, weighed and the radioactivity was measured using a Berthold LB 951 G counter in comparison with standards. The blood-associated activity was related to the total injected dose (ID) and expressed as a percentage of the total injected dose per gram of tissue (% ID/g).
Compound,oral availability [1],mucosal uptake by the liposomal formulations [2],bioavailability [3] [%]
Adalimumab,strong increase,strongly enhanced mucosal uptake,
CCCCCCCCCCCCCCCC(=O)N[C@@H](CCC(=O)NCCCC[C@H](NC(=O)[C@H](C)NC(=O)[C@H](C)NC(=O)[C@H](CCC(N)=O)NC(=O)CNC(=O)[C@H](CCC(=O)O)NC(=O)[C@H](CC(C)C)NC(=O)[C@H](Cc1ccc(O)cc1)NC(=O)[C@H](CO)NC(=O)[C@H](CO)NC(=O)[C@@H](NC(=O)[C@H](CC(=O)O)NC(=O)[C@H](CO)NC(=O)[C@@H](NC(=O)[C@H](Cc1ccccc1)NC(=O)[C@@H](NC(=O)CNC(=O)[C@H](CCC(=O)O)NC(=O)[C@H](C)NC(=O)[C@@H](N)Cc1cnc[nH]1)[C@@H](C)O)[C@@H](C)O)C(C)C)C(=O)N[C@@H](CCC(=O)O)C(=O)N[C@@H](Cc1ccccc1)C(=O)N[C@H](C(=O)N[C@@H](C)C(=O)N[C@@H](Cc1c[nH]c2ccccc12)C(=O)N[C@@H](CC(C)C)C(=O)N[C@H](C(=O)N[C@@H](CCCNC(=N)N)C(=O)NCC(=O)N[C@@H](CCCNC(=N)N)C(=O)NCC(=O)O)C(C)C)[C@@H](C)CC)C(=O)O [Liraglutide],,strongly enhanced mucosal uptake,
CN[C@H](CC(C)C)C(=O)N[C@H]1C(=O)N[C@@H](CC(N)=O)C(=O)N[C@H]2C(=O)N[C@H]3C(=O)N[C@H](C(=O)N[C@H](C(=O)O)c4cc(O)cc(O)c4-c4cc3ccc4O)[C@H](O)c3ccc(c(Cl)c3)Oc3cc2cc(c3O[C@@H]2O[C@H](CO)[C@@H](O)[C@H](O)[C@H]2O[C@H]2C[C@](C)(N)[C@H](O)[C@H](C)O2)Oc2ccc(cc2Cl)[C@H]1O [Vancomycin],,,≤ 50

# — patent US10653796B2, “Liposomes containing cell penetrating peptides and tetraetherlipids for the oral delivery of macromolecules” (Universität Heidelberg, priority 2015, dated 2020)
